Measured values published in patent US20260234204A1, “BRK PEPTIDES AND METHODS OF USE” (Concarlo Therapeutics, Inc., priority 2023, published 2026).

B1: IpY.20: smaller and more stable variant of ALT, SEQ ID NO: 6; tested as liposomal IpY.20 (peptide)
chain: MVSRDQAHLGPKYVGLWDFKSRTDEELSFRAGDVFHVARKEEQWWWATLLDEAGGAVAQGYVPHNYLAERETVESEPAGHAGSAALQDLAA
modifications: liposomal formulation

How the values were obtained:
Format in all cases: cell-based
[1] = test system: PDAC cell lines; experiment: Rescue of IpY.20 effect on viability by pretreatment with inhibitors
Experimental: When the less sensitive PDAC lines were treated with IpY.20, pRIPK1 expression, a marker of necroptosis, increased (FIG. 3A). To determine if ROS-dependent induction of pRIPK1 and necroptosis was responsible for IpY.20's effect in PDAC cell lines, cells lines (A-D) were treated with N-acetyl-1-cysteine (5 mM) a ROS inhibitor, Necrostatin-1 (10 μM) which prevents RIPK1 phosphorylation and Caspase-3/7 Inhibitor, for 24 h, followed by IpY.20 for the next 24 h. N=4 *p<0.05.
(§1) When these lines were pre-treated with NAC, Nec-1, or Caspase 3/7 inhibitor followed by IpY.20 treatment, differential results were observed. N=4 *p<0.05 (FIGS. 4A-4D). NAC treatment of BxPC3 cells reduced ROS levels (FIG. 4B), but these cells were rescued by caspase treatment (FIG. 4C). […] Percent viability relative to control plotted in all cases. L3.6 (FIG. 4E), PL45 (FIG. 4F) and Panel (FIG. 4G) were rescued by NEC-1, NAC and caspase inhibition to differing extents. Biomarkers dictating response were determined.

[2] = test system: PDAC cell lines; experiment: ROS-Glo assay in PDAC cells
Experimental: (§2) FIGS. 2A-2F. FIGS. 2A and 2B are Western Blots, illustrating results from assays performed with treatment naive cells to analyze the expression levels of p27. Cells were harvested with RIPA buffer supplemented with protease inhibitors. The MCF7-ALT Dox inducible cell line was used as a control. […] Cells were treated with increasing concentrations of IpY.20 for 24h. Viability was measured using the Cell Titer Glo assay (Promega). Viability was calculated relative to untreated control cells. N=4 *p<0.05. […] FIGS. 2D, 2E and 2F are graphs illustrating that IpY.20 induces ROS. Cells were treated with IpY.20 for 24 h. ROS levels were measured using ROS-Glo assay (Promega). % ROS was calculated relative to untreated control cells. N=4 *p<0.05. The MCF7-ALT inducible cell line induced ROS.

[3] = test system: pRIPK1; experiment: pRIPK1 expression (marker of necroptosis)
[4] = test system: Pancreatic Ductal Adenocarcinoma (PDAC) cell lines; experiment: Cell viability (Cell Titer Glo) in PDAC cell lines
Experimental: FIGS. 1A-1D. FIGS. 1A and 1B are respectively a graph and an image showing that PDAC cells are resistant to palbociclib-treatment. Cells were treated with increasing concentrations of palbociclib (PD) for 24 h before analysis for viability (Cell Titer Glo, Promega). N=4 *p<0.05. Control=untreated cells. Viability plotted relative to growth in the presence of control. FIGS. 1C and 1D show PL5 cells treated with increasing concentrations of IpY.20 and E′NP before analysis of Cell Titer Glo analysis.
as §2, with “Cells were treated with IpY.20 for 24 h.” left out, “N=4 *p<0.05. The MCF7-ALT inducible cell line induced ROS.” left out
To test whether PDAC cells might be resistant to CDK4/6 inhibition due to activation of CDK2, experiments were performed. […] Some non-specific liposome toxicity was detected at the high concentrations. […]

[5] = test system: CDK4i-resistant and treatment naive breast cancer cells; experiment: Arrest of breast cancer cells
[6] = test system: BxPC3; experiment: Caspase-Glo 3/7 Assay for apoptosis; details: treated 24 h
Description: as §1

[7] = L3.6, PL45 and Panel, to differing extents
[8] = PDAC lines that increased pRIPK1, pretreatment 24 h, then IpY.20 24 h

| Molecule | rescue from IpY.20 effect [1, 7] | rescue from IpY.20 effect [1, 8] | ROS levels ([2]; BxPC3 cells, pretreatment followed by IpY.20) | pRIPK1 expression ([3]; Super sensitive PDAC lines) | pRIPK1 expression ([3]; less sensitive PDAC lines) | sensitivity to treatment ([4]; PL5, Panc1, L3.6 and BXPC3) | viability of CDK4i resistant pancreatic cell lines ([4]; increasing concentrations for 24h, relative to untreated control) | ROS levels ([2]; treated 24 h, relative to untreated control cells) | ability to arrest cells [5] | caspase expression [6] |
| --- | --- | --- | --- | --- | --- | --- | --- | --- | --- | --- |
| CC(=O)N[C@@H](CS)C(=O)O [NAC, N-acetyl-1-cysteine] | rescued | rescued | reduced |  |  |  |  |  |  |  |
| CN1C(=O)C(Cc2c[nH]c3ccccc23)NC1=S (stereo not drawn) [Nec1, Necrostatin-1] | rescued | rescued |  |  |  |  |  |  |  |  |
| B1 |  |  |  | did not exhibit induction | increased | super sensitivity | reduces viability | induces ROS | behaved similarly to IpY.1 | strongly induced |
